According to article doi:10.1101/2020.07.24.219303:

Target: ParA (pMF1.22) co-expressed with ParC from pET15b (Myxococcus fulvus 124B02 (plasmid pMF1))
Test: SDS-PAGE band identified by mass spectrometry

“ParC (pMF1.21) co-expressed in front of ParA from pET15b (natural protein)” was tested, and the stoichiometry N (ParC:ParA molar ratio) was 1.
